± gives the uncertainty stated by the source.
B1: Far upstream element-binding protein 3, residues 75 to 150; numbered along this chain, Q96I24 (parent)
chain: RTVITEEFKVPDKMVGFIIGRGGEQISRIQAESGCKIQIASESSGIPERPCVLTGTPESIEQAKRLLGQIVDRCRN

Variants of: B1
Assay: abundance fitness (aPCA) (normalised: wild type 0, dead -1); higher = more abundant; growth selection in yeast, the domain comes from the species named
Conditions: Homo sapiens

Variant	abundance fitness
RTVITEEFKVPDKMVGFIIGRFGEQISRIQAESGCKIQIASESSGIPERPCVLTGTPESIEQAKRLLGQIVDRCRN [G22F]	-0.1 ± 0.065
RTVITEEFKVPDKMVGFIIGRGGEQWSRIQAESGCKIQIASESSGIPERPCVLTGTPESIEQAKRLLGQIVDRCRN [I26W]	-0.2 ± 0.032
RTVITEEFKVPDKMVGFIIGRGGEQISRIQAESGCKIQIASESSGIPERPNVLTGTPESIEQAKRLLGQIVDRCRN [C51N]	-0.634 ± 0.091
RTVITEEFKVPDKMVGFIIGRGGEQISRIQAESGCKIQIASESSGIPERPQVLTGTPESIEQAKRLLGQIVDRCRN [C51Q]	-0.688 ± 0.066
RTVITEEFKVPDKMVGFIIGRGGEQISRIQAESGCKIQIASESSGIPERPEVLTGTPESIEQAKRLLGQIVDRCRN [C51E]	-0.924 ± 0.06
RTVITEEFKVPDKMVGFIIGRGGEQISRIQAESGCKIQIASESSGIPERLCVLTGTPESIEQAKRLLGQIVDRCRN [P50L]	-0.043 ± 0.03
RTVITEEFKVPDKMVGFIIGRGGEQISRIQAESGCKIQIASESSGIPERACVLTGTPESIEQAKRLLGQIVDRCRN [P50A]	-0.042 ± 0.031
RTVITEEFKVPDKMVGFIIGRGGEQISRIQAESGCKIQIASESSGIPERPCVTTGTPESIEQAKRLLGQIVDRCRN [L53T]	-0.94 ± 0.077
RTVITEEFKVPDKMVGFIIGRGGEQISRIQAESGCKIQIASESSGIPERPCVQTGTPESIEQAKRLLGQIVDRCRN [L53Q]	-1.13 ± 0.12
RTVITEEFKVPDKMVGFIIGRGGEQISRIQAESGCKIQIASESSGIPERPCVLTGTPESIEQAKRLLGQIFDRCRN [V71F]	-0.099 ± 0.058
RTVITEEFKVPDKMVGFIIGRGGEQISRIQAESGCKIQIASESSGIPERPCVLTGTPESIEQAKRLLGQIDDRCRN [V71D]	-0.159 ± 0.046
RTVITEEFKVPDKMVGFIIGRGGEQISRIQAESGCKIQIASESSGIPERPCVLTGTPESIEQAKRLLGQIGDRCRN [V71G]	-0.105 ± 0.026
RTVITEEFKVPDKMVGFIIGRGGEQISRIQAESGCKIQIASESSGIPERPCVLTGTPESIEQAKRLLGQIIDRCRN [V71I]	-0.018 ± 0.067
RTVITEEFKVPDKMVGFIIGRGGEQISRIQAEHGCKIQIASESSGIPERPCVLTGTPESIEQAKRLLGQIVDRCRN [S33H]	-0.716 ± 0.087
RTVITEEFKVPDKMVGFIIGRGGEQISRIQAEFGCKIQIASESSGIPERPCVLTGTPESIEQAKRLLGQIVDRCRN [S33F]	-0.591 ± 0.072
RTVITEEFKVPDKMVGFIIGRGGEQISRIQAENGCKIQIASESSGIPERPCVLTGTPESIEQAKRLLGQIVDRCRN [S33N]	-0.685 ± 0.075
RTVITEEFKVPDKMVGFIIGRGGEQISRIQAESGCYIQIASESSGIPERPCVLTGTPESIEQAKRLLGQIVDRCRN [K36Y]	-0.14 ± 0.059
RTVITEEFKVPDKMVGFIIGRGGEQISRIQAESGCKIQIASESSGIPERPCVLTGTPESMEQAKRLLGQIVDRCRN [I60M]	-0.343 ± 0.046

Variant	abundance fitness
RTVITEEFKVPDKMVGFIIGRGGEQISRIQAESGCKIQIASESSGIPERPCVLTGTPESEEQAKRLLGQIVDRCRN [I60E]	-0.877 ± 0.058
RTVITEEFKVPDKMVGFIIGRGGEQISRIQAESGCKIQIASESSGIPERPCVLTGTPESKEQAKRLLGQIVDRCRN [I60K]	-0.767 ± 0.065
RTVITEDFKVPDKMVGFIIGRGGEQISRIQAESGCKIQIASESSGIPERPCVLTGTPESIEQAKRLLGQIVDRCRN [E7D]	-0.02 ± 0.047
RTVITEEFKVPDKMVGFIIGRGGEQISRIQAESGCKIQIASESSGIPERPCVLTGTPESIEQAKRLLGQIVDRQRN [C74Q]	-0.002 ± 0.04
RTVITEEFKVPDKMVGFIIGRGGEQISRIQAESGCKIQIASESSGIPERPCVLTGTPESIEQAKRLLGQIVDRHRN [C74H]	0.031 ± 0.049
RTVITEEFKVPDKMVGFIIGRGGEQISRIQAESGCKIGIASESSGIPERPCVLTGTPESIEQAKRLLGQIVDRCRN [Q38G]	-0.105 ± 0.024
RTVITEEFKVPDKMVGFIIGRGGEQISRIQAESGCKIQIASESSGIPPRPCVLTGTPESIEQAKRLLGQIVDRCRN [E48P]	-0.242 ± 0.042
RTVITEEFKVPDKMVGRIIGRGGEQISRIQAESGCKIQIASESSGIPERPCVLTGTPESIEQAKRLLGQIVDRCRN [F17R]	-0.018 ± 0.029
RTVITEEFKVPDKMVGFIIGRGGEQISRIQAESGCKIQIASESSGIPERPCVLCGTPESIEQAKRLLGQIVDRCRN [T54C]	-0.187 ± 0.066
RTVITEEFKVPDKMVGFIIGRGGEQISRIHAESGCKIQIASESSGIPERPCVLTGTPESIEQAKRLLGQIVDRCRN [Q30H]	-0.279 ± 0.075
RTVITEEFKVPDKMKGFIIGRGGEQISRIQAESGCKIQIASESSGIPERPCVLTGTPESIEQAKRLLGQIVDRCRN [V15K]	-0.119 ± 0.043
RTVITEEFKVPDKMHGFIIGRGGEQISRIQAESGCKIQIASESSGIPERPCVLTGTPESIEQAKRLLGQIVDRCRN [V15H]	-0.218 ± 0.051
RCVITEEFKVPDKMVGFIIGRGGEQISRIQAESGCKIQIASESSGIPERPCVLTGTPESIEQAKRLLGQIVDRCRN [T2C]	-0.114 ± 0.046
RTVITEEFKVPDKMVGFIIGRGGEQISRIQAESGCKIQIASESSNIPERPCVLTGTPESIEQAKRLLGQIVDRCRN [G45N]	-0.01 ± 0.068
RTVITEEFKVPDKMVGFIIGRGGEQISRIQAESGCKIQIASESSGIPERPCVLTGNPESIEQAKRLLGQIVDRCRN [T56N]	-0.105 ± 0.055
RTVITEEFKVPDKMVGFIIGRGGEQISRIQAESGCKIQIASESSGIPERPCVLTNTPESIEQAKRLLGQIVDRCRN [G55N]	-0.989 ± 0.1
RTVITEEFKVPDKMVGFIIGRGGEQISRIQAESGCKIQIASESSGIPERPCVLTGTPESIEQAKRLLGQIVCRCRN [D72C]	-0.138 ± 0.046
RTVITEEKKVPDKMVGFIIGRGGEQISRIQAESGCKIQIASESSGIPERPCVLTGTPESIEQAKRLLGQIVDRCRN [F8K]	-0.397 ± 0.053

Reference: the Human Domainome abundance scans (Beltran et al. 2025)
